Laboratory results as given in US20050106141A1 (PROCTER AND GAMBLE, published 2005).

T1: LexA BD-HRt (mouse, UniProt P0A7C2 1-202; Q61645 490-1182)
T1 construct: domain: Lex A DNA BD;range 490-1182; also called BD-HRt(mouse); Lex A DNA BD-HRt
T1 sequence (looked up): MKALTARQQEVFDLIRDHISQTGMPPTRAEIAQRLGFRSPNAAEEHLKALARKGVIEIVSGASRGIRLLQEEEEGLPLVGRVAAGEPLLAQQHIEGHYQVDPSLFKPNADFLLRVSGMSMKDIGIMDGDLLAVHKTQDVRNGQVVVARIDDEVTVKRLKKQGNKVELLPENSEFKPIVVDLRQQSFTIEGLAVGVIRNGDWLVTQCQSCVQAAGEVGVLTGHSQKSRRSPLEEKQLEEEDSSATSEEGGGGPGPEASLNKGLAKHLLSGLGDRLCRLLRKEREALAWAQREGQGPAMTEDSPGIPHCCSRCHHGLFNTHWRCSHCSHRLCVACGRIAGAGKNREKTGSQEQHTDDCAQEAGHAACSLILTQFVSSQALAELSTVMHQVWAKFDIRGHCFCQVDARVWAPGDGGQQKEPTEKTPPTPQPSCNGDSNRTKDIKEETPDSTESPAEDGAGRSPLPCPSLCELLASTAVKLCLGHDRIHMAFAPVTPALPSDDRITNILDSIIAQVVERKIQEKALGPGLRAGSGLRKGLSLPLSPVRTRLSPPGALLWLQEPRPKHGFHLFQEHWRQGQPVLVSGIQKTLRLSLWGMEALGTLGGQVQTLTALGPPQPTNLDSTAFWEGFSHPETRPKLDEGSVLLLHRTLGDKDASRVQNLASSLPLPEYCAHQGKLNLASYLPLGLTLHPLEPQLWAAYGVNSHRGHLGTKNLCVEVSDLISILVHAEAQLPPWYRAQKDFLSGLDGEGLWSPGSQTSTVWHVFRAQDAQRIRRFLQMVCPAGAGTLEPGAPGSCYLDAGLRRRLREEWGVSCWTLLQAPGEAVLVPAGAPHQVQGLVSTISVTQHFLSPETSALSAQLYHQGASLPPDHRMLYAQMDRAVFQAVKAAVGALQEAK

T2: AD-HRt(mouse) (mouse, UniProt Q61645 490-1182)
T2 sequence (looked up): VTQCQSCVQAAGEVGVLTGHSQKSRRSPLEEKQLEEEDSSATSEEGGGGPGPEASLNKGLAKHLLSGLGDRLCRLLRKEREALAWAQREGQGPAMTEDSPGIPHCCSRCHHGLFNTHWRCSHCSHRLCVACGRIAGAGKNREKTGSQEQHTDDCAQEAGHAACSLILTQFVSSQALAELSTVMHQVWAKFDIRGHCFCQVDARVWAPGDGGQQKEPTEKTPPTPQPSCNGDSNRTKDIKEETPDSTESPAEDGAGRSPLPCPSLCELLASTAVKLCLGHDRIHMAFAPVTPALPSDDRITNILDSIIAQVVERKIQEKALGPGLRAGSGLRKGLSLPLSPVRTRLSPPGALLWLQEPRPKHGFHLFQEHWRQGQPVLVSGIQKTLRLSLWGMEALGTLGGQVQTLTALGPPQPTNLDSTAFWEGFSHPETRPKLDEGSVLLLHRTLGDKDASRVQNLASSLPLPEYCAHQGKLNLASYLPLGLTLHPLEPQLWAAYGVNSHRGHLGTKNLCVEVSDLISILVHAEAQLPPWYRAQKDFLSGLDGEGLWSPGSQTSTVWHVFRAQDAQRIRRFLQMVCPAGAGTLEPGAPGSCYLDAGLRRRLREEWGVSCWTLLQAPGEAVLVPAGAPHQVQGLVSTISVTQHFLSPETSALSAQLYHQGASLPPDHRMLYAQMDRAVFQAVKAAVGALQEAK


Columns and labels:
LexA BD-HRt = target: T1, LexA BD-HRt; assay: yeast two-hybrid library screen; number of positive clones with this identity
Text: Clontech Human Keratinocyte GAL4 cDNA library (complexity 2.5×10⁶) in pACT2 vector was used used to screen for HRt interacting proteins. A Leu⁻, Trp⁻ yeast strain with HIS3 and LACZ reporters for yeasts two hybrid interaction (strain L41) was first transformed with LexA BD-HRt palsmid) for Trp⁺ phenotype. The resulting L41/LexA BD-HR transformant was screened to ensure expression of LexA BD-HRt protein and also for lack of auto activation of the reporter genes HIS3 and LACZ. This strain was transformed with Keratinocyte AD-cDNA library and plated on Trp⁻Leu⁻His⁻ plate to select for clones with positive interaction. Colonies that appeared on selsctive plates were subsequently tested for LACZ expression on X-GAL plates. […] AD-plasmid was rescued from the 90 clones and retested for HRt bait dependance. […] The positive clones are expected to contain an AD-IP (interacting partner) that interacts with BD-HRt.

AD-HRt(mouse) = target: T2, AD-HRt(mouse); assay: cell-based or functional assay
AD-TRβ = AD-TRβ (UniProt P04386 768-881); assay: cell-based or functional assay
Chain of AD-TRβ (P04386 768-881): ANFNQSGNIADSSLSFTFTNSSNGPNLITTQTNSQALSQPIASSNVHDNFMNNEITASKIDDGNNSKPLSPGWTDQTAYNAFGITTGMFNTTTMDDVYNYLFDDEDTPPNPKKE

| Hits (LexA BD-HRt) | relative alpha-galactosidase activity (yeast two-hybrid reporter, assay of example 3) with 1alpha, 25-dihydroxy cholecalciferol (25 DHC) at sub-micromolar concentrations (AD-HRt(mouse)) [fold] | relative alpha-galactosidase activity (yeast two-hybrid reporter, assay of example 3) with 25-hydroxy cholecalciferol (25 HC) at sub-micromolar concentrations (AD-HRt(mouse)) [fold] | yeast two-hybrid reporter with 25 HC (AD-TRβ) [fold] | Binder |
| --- | --- | --- | --- | --- |
| 4 | – | – | – | Homo Sapiens Similar to Stromal Antigen 2 (other, UniProt Q8N3U4 1-1231, looked up, not shown: large carriers, Prey clone; also called AD-IP; BC001765) MIAAPEIPTDFNLLQESETHFSSDTDFEDIEGKNQKQGKGKTCKKGKKGPAEKGKGGNGGGKPPSGPNRMNGHHQQNGVENMMLFEVVKMGKSAMQSVVDDWIESYKHDRDIALLDLINFFIQCSGCKGVVTAEMFRHMQNSEIIRKMTEEFDEDSGDYPLTMAGPQWKKFKSSFCEFIGVLVRQCQYSIIYDEYMMDTVISLLTGLSDSQVRAFRHTSTLAAMKLMTALVNVALNLSINMDNTQRQYEAERNKMIGKRANERLELLLQKRKELQENQDEIENMMNAIFKGVFVHRYRDAIAEIRAICIEEIGIWMKMYSDAFLNDSYLKYVGWTMHDKQGEVRLKCLTALQGLYYNKELNSKLELFTSRFKDRIVSMTLDKEYDVAVQAIKLLTLVLQSSEEVLTAEDCENVYHLVYSAHRPVAVAAGEFLYKKLFSRRDPEEDGMMKRRGRQGPNANLVKTLVFFFLESELHEHAAYLVDSMWDCATELLKDWECMNSLLLEEPLSGEEALTDRQESALIEIMLCTIRQAAECHPPVGRGTGKRVLTAKEKKTQLDDRTKITELFAVALPQLLAKYSVDAEKVTNLLQLPQYFDLEIYTTGRLEKHLDALLRQIRNIVEKHTDTDVLEACSKTYHALCNEEFTIFNRVDISRSQLIDELADKFNRLLEDFLQEGEEPDEDDAYQVLSTLKRITAFHNAHDLSKWDLFACNYKLLKTGIENGDMPEQIVIHALQCTHYVILWQLAKITESSSTKEDLLRLKKQMRVFCQICQHYLTNVNTTVKEQAFTILCDILMIFSHQIMSGGRDMLEPLVYTPDSSLQSELLSFILDHVFIEQDDDNNSADGQQEDEASKIEALHKRRNLLAAFCKLIVYTVVEMNTAADIFKQYMKYYNDYGDIIKETMSKTRQIDKIQCAKTLILSLQQLFNEMIQENGYNFDRSSSTFSGIKELARRFALTFGLDQLKTREAIAMLHKDGIEFAFKEPNPQGESHPPLNLAFLDILSEFSSKLLRQDKRTVYVYLEKFMTFQMSLRREDVWLPLMSYRNSLLAGGDDDTMSVISGISSRGSTVRSKKSKPSTGKRKVVEGMQLSLTEESSSSDSMWLSREQTLHTPVMMQTPQLTSTIMREPKRLRPEDSFMSVYPMQTEHHQTPLDYNRRGTSLMEDDEEPIVEDVMMSSEGRIEDLNEGMDFDTMDIDLPPSKNRRERTELKPDFFDPASIMDESVLGVSMF |
| 1 | – | – | – | Homo Sapiens Protein Inhibitor of Activated STAT-1 (PIAS1) (other, UniProt O75925 1-651, looked up, not shown: large carriers, Prey clone; extent of the clone unknown; also called AD-IP; AF167160) MADSAELKQMVMSLRVSELQVLLGYAGRNKHGRKHELLTKALHLLKAGCSPAVQMKIKELYRRRFPQKIMTPADLSIPNVHSSPMPATLSPSTIPQLTYDGHPASSPLLPVSLLGPKHELELPHLTSALHPVHPDIKLQKLPFYDLLDELIKPTSLASDNSQRFRETCFAFALTPQQVQQISSSMDISGTKCDFTVQVQLRFCLSETSCPQEDHFPPNLCVKVNTKPCSLPGYLPPTKNGVEPKRPSRPINITSLVRLSTTVPNTIVVSWTAEIGRNYSMAVYLVKQLSSTVLLQRLRAKGIRNPDHSRALIKEKLTADPDSEIATTSLRVSLLCPLGKMRLTIPCRALTCSHLQCFDATLYIQMNEKKPTWVCPVCDKKAPYEHLIIDGLFMEILKYCTDCDEIQFKEDGTWAPMRSKKEVQEVSASYNGVDGCLSSTLEHQVASHHQSSNKNKKVEVIDLTIDSSSDEEEEEPSAKRTCPSLSPTSPLNNKGILSLPHQASPVSRTPSLPAVDTSYINTSLIQDYRHPFHMTPMPYDLQGLDFFPFLSGDNQHYNTSLLAAAAAAVSDDQDLLHSSRFFPYTSSQMFLDQLSAGGSTSLPTTNGSSSGSNSSLVSSNSLRESHSHTVTNRSSTDTASIFGIIPDIISLD |
| 14 | – | – | – | Homo Sapiens Ubiquitous Receptor (receptor, UniProt P55055 1-460, looked up, not shown: large carriers, Prey clone; also called Oxysterols Receptor LXR-Beta; LXR) MSSPTTSSLDTPLPGNGPPQPGAPSSSPTVKEEGPEPWPGGPDPDVPGTDEASSACSTDWVIPDPEEEPERKRKKGPAPKMLGHELCRVCGDKASGFHYNVLSCEGCKGFFRRSVVRGGARRYACRGGGTCQMDAFMRRKCQQCRLRKCKEAGMREQCVLSEEQIRKKKIRKQQQESQSQSQSPVGPQGSSSSASGPGASPGGSEAGSQGSGEGEGVQLTAAQELMIQQLVAAQLQCNKRSFSDQPKVTPWPLGADPQSRDARQQRFAHFTELAIISVQEIVDFAKQVPGFLQLGREDQIALLKASTIEIMLLETARRYNHETECITFLKDFTYSKDDFHRAGLQVEFINPIFEFSRAMRRLGLDDAEYALLIAINIFSADRPNVQEPGRVEALQQPYVEALLSYTRIKRPQDQLRFPRMLMKLVSLRTLSSVHSEQVFALRLQDKKLPPLLSEIWDVHE |
| 2 | – | – | – | Homo Sapiens DEAD (Asp-Glu-Ala-Asp) box polypeptide 3 (enzyme, UniProt O00571 1-662, looked up, not shown: large carriers, Prey clone; extent of the clone unknown; also called Homo Sapiens DEAD/H (Asp-Glu-Ala-Asp/His) Box Polypeptide 3; AD-IP) MSHVAVENALGLDQQFAGLDLNSSDNQSGGSTASKGRYIPPHLRNREATKGFYDKDSSGWSSSKDKDAYSSFGSRSDSRGKSSFFSDRGSGSRGRFDDRGRSDYDGIGSRGDRSGFGKFERGGNSRWCDKSDEDDWSKPLPPSERLEQELFSGGNTGINFEKYDDIPVEATGNNCPPHIESFSDVEMGEIIMGNIELTRYTRPTPVQKHAIPIIKEKRDLMACAQTGSGKTAAFLLPILSQIYSDGPGEALRAMKENGRYGRRKQYPISLVLAPTRELAVQIYEEARKFSYRSRVRPCVVYGGADIGQQIRDLERGCHLLVATPGRLVDMMERGKIGLDFCKYLVLDEADRMLDMGFEPQIRRIVEQDTMPPKGVRHTMMFSATFPKEIQMLARDFLDEYIFLAVGRVGSTSENITQKVVWVEESDKRSFLLDLLNATGKDSLTLVFVETKKGADSLEDFLYHEGYACTSIHGDRSQRDREEALHQFRSGKSPILVATAVAARGLDISNVKHVINFDLPSDIEEYVHRIGRTGRVGNLGLATSFFNERNINITKDLLDLLVEAKQEVPSWLENMAYEHHYKGSSRGRSKSSRFSGGFGARDYRQSSGASSSSFSSSRASSSRSGGGGHGSSRGFGGGGYGGFYNSDGYGGNYNSQGVDWWGN |
| – | > 3 | > 3 | ~2 | BD-VDR(mouse) (receptor, UniProt P04386 1-147, looked up) MKLLSSIEQACDICRLKKLKCSKEKPKCAKCLKNNWECRYSPKTKRSPLTRAHLTEVESRLERLEQLFLLIFPREDLDMILKMDSLQDIKALLTGLFVQDNVNKDAVTDRLASVETDMPLTLRQHRISATSSSEESSNKGQRQLTVSMEAMAASTSLPDPGDFDRNVPRICGVCGDRATGFHFNAMTCEGCKGFFRRSMKRKALFTCPFNGDCRITKDNRRHCQACRLKRCVDIGMMKEFILTDEEVQRKREMIMKRKEEEALKDSLRPKLSEEQQHIIAILLDAHHKTYDPTYADFRDFRPPIRADVSTGSYSPRPTLSFSGDSSSNSDLYTPSLDMMEPASFSTMDLNEEGSDDPSVTLDLSPLSMLPHLADLVSYSIQKVIGFAKMIPGFRDLTSDDQIVLLKSSAIEVIMLRSNQSFTLDDMSWDCGSQDYKYDITDVSRAGHTLELIEPLIKFQVGLKKLNLHEEEHVLLMAICIVSPDRPGVQDAKLVEAIQDRLSNTLQTYIRCRHPPPGSHQLYAKMIQKLADLRSLNEEHSKQYRSLSFQPENSMKLTPLVLEVFGNEIS |
